In paper PMC7335163:

Target: GFP-tagged R2910Q UNC80 mutant (mouse) (mouse) (UniProt Q8BLN6)
Experiment: co-IP; HEK293T co-transfected with NALCN or UNC79 and GFP-tagged UNC80 constructs; IP with anti-GFP, blot anti-NALCN or anti-UNC79; RIPA buffer (IP buffer with 0.5% deoxycholate and 0.1% SDS); 4 °C (Fig. 8a-c, f, g)

Sequence of UniProt Q8BLN6 (Q8BLN6 whole entry R2910Q): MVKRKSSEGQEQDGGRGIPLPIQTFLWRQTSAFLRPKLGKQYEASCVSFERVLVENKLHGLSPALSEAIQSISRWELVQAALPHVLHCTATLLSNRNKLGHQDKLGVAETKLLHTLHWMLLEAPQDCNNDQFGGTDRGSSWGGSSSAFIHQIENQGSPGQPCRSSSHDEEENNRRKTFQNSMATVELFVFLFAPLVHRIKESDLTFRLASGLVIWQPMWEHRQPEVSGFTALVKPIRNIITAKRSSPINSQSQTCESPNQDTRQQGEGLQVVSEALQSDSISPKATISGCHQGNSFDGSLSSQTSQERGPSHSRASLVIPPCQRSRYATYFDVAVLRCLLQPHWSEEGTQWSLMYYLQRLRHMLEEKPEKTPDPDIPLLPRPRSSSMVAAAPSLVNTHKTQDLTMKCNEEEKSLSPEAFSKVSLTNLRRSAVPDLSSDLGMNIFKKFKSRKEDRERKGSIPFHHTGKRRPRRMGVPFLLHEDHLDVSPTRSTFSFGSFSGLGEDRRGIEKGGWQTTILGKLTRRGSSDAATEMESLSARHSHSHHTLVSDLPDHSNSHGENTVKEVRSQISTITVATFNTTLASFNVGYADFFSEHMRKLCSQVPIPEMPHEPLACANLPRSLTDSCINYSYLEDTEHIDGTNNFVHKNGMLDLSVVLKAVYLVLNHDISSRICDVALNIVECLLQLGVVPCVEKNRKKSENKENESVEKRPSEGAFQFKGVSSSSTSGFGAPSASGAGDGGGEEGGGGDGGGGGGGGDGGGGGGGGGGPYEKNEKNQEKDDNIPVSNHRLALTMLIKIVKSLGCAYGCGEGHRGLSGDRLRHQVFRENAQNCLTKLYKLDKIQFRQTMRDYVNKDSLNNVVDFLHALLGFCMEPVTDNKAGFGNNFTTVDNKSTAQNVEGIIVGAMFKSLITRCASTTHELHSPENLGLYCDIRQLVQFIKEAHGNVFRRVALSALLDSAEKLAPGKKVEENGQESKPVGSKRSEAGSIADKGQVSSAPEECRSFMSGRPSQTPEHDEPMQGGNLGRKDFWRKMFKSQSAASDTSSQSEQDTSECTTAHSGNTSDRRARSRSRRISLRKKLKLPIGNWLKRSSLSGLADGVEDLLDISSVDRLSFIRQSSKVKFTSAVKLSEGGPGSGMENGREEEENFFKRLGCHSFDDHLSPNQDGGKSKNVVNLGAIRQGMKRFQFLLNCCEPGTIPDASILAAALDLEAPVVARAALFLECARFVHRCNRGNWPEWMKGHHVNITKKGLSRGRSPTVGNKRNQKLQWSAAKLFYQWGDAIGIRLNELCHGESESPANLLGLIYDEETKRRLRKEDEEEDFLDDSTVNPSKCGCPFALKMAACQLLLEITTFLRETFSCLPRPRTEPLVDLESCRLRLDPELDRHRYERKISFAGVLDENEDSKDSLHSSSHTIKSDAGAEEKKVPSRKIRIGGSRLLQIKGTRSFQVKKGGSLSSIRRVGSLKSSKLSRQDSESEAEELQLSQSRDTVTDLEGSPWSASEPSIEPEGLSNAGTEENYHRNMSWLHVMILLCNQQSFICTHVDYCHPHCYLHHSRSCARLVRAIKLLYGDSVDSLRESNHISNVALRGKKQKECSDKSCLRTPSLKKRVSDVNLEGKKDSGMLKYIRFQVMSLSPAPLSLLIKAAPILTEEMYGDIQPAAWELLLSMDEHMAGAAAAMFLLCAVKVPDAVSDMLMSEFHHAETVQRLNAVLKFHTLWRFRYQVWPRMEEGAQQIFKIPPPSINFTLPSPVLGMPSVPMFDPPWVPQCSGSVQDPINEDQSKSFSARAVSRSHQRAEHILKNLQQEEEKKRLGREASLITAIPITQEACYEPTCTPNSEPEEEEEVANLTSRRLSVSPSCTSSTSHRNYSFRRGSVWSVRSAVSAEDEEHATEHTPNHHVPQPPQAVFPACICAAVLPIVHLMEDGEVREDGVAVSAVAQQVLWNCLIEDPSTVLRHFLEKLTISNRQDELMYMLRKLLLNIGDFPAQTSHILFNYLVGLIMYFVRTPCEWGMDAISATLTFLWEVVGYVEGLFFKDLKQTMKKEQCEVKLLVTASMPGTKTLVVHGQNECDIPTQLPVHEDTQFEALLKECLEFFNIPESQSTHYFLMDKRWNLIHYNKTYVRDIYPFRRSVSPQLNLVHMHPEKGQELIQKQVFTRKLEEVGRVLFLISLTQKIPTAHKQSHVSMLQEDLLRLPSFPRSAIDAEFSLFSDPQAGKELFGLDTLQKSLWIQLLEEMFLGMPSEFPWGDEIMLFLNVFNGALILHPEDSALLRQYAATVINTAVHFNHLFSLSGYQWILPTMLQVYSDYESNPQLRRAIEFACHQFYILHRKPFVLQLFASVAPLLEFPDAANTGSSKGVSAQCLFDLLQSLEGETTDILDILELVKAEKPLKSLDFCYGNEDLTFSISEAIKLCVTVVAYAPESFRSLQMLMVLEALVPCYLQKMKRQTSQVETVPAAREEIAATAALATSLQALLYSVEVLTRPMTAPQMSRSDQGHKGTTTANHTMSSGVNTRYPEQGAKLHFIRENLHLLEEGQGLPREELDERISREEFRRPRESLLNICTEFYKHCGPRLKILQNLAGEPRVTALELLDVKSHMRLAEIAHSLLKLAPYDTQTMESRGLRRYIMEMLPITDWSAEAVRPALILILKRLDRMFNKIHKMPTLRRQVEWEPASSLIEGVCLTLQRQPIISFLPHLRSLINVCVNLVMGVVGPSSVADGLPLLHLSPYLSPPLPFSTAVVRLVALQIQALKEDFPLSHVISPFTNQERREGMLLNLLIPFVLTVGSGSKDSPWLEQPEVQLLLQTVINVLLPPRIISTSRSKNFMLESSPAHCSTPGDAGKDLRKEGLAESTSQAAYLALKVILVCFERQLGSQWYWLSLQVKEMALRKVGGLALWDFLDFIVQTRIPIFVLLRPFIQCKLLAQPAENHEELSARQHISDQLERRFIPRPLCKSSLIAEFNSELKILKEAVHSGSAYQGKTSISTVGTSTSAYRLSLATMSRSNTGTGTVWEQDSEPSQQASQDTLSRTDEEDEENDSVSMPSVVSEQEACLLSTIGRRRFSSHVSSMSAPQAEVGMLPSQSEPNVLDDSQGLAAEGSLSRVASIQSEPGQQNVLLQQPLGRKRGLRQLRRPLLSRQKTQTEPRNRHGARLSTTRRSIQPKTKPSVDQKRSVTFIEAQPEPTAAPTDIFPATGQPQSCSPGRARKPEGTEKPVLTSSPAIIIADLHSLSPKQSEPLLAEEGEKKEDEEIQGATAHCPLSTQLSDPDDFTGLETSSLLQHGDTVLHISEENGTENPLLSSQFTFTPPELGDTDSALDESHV

reduction of apparent UNC80–UNC79 affinity (co-precipitated UNC79) against WT UNC80: 60%
Substance: UNC79 (mouse), wild type, non-tagged, Q0KK59 1-2596
